Reference: US20160280794A1

Biological target: Ramos (human) (UniProt P11836)
Assay: FACS binding; Ramos cells

Ramos (human), sequence (P11836 whole entry): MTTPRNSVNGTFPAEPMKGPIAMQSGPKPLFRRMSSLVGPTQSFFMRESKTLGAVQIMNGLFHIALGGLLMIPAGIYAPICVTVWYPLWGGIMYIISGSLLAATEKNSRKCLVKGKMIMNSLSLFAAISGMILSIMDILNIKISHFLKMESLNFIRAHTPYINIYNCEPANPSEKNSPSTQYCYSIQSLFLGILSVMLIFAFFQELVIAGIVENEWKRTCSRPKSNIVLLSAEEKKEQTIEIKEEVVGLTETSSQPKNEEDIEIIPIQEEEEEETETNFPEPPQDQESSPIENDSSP

| EC50 [µg/mL] | Substance |
| --- | --- |
| 1.54 | Rituxan-GlcNAc |
| 1.2 | Rituxan-SCT |
